Source: patent US20090203538A1 (INSTITUTE FOR ANTIBODIES, published 2009)

Tests used:
[1] = target: T1, IgSF4 (immunoglobulin superfamily member 4) (Homo sapiens, UniProt Q9BY67 45-442); assay: antigen assigned by the filing's classifying and identification method; details for this clone not given
T1 construct: Native protein on cancer cell lines; also called BL2; ST17
T1 sequence: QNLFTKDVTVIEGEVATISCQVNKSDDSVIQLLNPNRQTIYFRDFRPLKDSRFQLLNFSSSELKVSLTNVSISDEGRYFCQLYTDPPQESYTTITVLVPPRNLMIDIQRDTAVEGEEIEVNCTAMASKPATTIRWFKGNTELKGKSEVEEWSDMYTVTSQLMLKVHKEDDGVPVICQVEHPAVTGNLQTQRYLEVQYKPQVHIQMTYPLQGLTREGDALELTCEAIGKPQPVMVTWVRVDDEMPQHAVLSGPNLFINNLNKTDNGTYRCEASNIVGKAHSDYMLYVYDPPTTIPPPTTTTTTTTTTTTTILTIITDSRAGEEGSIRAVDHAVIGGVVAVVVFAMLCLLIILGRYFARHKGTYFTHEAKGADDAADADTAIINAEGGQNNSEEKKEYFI

[2] = target: T2, HGFR (Hepatocyte growth factor receptor) (Homo sapiens (Human), UniProt P08581 25-1390); assay: as above
T2 construct: also called Met

[3] = target: T3, ALCAM (Activated leukocyte cell adhesion molecule) (Homo sapiens (Human), UniProt Q13740 28-583); assay: flow cytometry histograms on various cell lines, antigen identified later
T3 construct: Native protein on cancer cell lines; also called CD166 antigen; CD166
T3 sequence: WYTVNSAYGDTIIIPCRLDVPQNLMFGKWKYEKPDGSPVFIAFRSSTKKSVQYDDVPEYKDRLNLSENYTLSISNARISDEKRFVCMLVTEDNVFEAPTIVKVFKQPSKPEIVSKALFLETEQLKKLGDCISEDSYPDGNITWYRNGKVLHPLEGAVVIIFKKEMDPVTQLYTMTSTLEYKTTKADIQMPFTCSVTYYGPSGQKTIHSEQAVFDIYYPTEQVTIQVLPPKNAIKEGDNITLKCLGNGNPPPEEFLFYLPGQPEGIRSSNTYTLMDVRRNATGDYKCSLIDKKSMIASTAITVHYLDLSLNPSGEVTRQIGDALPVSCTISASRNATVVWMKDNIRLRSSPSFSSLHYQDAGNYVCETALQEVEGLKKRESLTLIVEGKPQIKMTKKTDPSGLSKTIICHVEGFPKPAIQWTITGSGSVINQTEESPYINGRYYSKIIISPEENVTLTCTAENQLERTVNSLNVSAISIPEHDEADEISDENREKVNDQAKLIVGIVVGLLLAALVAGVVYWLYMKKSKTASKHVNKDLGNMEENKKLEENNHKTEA

[4] = target: T4, CD46 antigen (Homo sapiens (Human), UniProt P15529 35-392); assay: antigen assigned by the filing's classifying and identification method; details for this clone not given
T4 construct: Native protein on cancer cell lines; also called MCP (Membrane Co-factor Protein); gp45-70
T4 sequence: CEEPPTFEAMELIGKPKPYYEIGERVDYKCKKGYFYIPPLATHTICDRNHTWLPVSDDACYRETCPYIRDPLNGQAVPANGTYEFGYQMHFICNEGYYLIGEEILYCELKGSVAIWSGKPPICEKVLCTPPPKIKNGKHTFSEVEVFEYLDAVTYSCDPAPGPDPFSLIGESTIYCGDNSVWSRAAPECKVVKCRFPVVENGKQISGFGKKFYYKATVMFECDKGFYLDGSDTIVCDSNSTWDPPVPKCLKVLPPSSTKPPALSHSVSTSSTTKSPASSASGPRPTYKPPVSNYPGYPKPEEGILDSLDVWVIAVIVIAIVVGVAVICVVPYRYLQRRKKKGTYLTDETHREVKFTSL

[5] = target: T3, ALCAM (Activated leukocyte cell …); assay: immunoprecipitation from biotin-labelled cell lysate with pp type antibody, mass spectrometry
[6] = target: CD44 (Homo sapiens (Human), UniProt P16070 24-742); assay: antigen assigned by the filing's classifying and identification method; details for this clone not given
[7] = target: T5, EpCAM (Homo sapiens (Human), UniProt P16422 24-314); assay: as above
T5 chain: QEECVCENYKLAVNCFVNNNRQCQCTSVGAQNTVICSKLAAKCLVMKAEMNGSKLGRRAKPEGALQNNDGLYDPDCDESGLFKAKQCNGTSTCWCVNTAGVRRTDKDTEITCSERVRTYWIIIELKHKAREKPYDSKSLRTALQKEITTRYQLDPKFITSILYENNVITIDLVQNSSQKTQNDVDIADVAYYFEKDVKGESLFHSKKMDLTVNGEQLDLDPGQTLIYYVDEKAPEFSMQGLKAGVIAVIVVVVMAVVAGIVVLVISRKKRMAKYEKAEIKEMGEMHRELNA

[8] = target: T6, BCAM (basal cell adhesion molecule) (Lutheran blood group) (Homo sapiens (Human), UniProt P50895 32-628, limits assumed); assay: as above
T6 construct: also called CD239 antigen
T6 sequence: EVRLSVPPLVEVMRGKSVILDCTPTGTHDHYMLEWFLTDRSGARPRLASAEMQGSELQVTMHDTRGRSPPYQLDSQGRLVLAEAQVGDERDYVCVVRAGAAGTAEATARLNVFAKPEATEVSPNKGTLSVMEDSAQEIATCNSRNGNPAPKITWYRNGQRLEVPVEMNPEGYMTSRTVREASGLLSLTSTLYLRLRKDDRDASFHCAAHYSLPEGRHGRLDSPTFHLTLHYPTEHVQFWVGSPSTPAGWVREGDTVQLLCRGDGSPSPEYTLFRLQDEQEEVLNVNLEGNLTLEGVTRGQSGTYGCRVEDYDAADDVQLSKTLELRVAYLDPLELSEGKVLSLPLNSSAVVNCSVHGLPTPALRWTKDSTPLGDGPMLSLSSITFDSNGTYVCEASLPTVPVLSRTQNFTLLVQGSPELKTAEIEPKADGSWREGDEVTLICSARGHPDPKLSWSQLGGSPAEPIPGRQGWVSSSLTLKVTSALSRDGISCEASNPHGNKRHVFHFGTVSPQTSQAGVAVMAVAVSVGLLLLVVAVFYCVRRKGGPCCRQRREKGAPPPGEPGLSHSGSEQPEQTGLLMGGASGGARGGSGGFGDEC

[9] = target: T7, CD73 (Homo sapiens (Human), UniProt P21589 27-549, limits assumed); assay: as above
T7 construct: also called 5-prime-ribonucleotide phosphohydrolase
T7 sequence: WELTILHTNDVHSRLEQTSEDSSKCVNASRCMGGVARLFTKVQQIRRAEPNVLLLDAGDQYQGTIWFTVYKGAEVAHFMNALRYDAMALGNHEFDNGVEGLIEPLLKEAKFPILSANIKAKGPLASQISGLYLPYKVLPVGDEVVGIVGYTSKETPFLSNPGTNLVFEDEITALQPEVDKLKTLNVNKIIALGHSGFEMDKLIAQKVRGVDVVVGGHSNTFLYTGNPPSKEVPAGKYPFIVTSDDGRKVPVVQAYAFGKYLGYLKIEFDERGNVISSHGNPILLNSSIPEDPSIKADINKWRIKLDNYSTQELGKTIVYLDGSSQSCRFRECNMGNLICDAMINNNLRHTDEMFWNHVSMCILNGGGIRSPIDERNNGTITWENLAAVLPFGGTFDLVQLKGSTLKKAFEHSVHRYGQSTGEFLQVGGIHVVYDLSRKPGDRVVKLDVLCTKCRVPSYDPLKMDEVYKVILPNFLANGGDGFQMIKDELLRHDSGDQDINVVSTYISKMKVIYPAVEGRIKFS

T2 sequence (P08581 25-1390 L1272V limits assumed): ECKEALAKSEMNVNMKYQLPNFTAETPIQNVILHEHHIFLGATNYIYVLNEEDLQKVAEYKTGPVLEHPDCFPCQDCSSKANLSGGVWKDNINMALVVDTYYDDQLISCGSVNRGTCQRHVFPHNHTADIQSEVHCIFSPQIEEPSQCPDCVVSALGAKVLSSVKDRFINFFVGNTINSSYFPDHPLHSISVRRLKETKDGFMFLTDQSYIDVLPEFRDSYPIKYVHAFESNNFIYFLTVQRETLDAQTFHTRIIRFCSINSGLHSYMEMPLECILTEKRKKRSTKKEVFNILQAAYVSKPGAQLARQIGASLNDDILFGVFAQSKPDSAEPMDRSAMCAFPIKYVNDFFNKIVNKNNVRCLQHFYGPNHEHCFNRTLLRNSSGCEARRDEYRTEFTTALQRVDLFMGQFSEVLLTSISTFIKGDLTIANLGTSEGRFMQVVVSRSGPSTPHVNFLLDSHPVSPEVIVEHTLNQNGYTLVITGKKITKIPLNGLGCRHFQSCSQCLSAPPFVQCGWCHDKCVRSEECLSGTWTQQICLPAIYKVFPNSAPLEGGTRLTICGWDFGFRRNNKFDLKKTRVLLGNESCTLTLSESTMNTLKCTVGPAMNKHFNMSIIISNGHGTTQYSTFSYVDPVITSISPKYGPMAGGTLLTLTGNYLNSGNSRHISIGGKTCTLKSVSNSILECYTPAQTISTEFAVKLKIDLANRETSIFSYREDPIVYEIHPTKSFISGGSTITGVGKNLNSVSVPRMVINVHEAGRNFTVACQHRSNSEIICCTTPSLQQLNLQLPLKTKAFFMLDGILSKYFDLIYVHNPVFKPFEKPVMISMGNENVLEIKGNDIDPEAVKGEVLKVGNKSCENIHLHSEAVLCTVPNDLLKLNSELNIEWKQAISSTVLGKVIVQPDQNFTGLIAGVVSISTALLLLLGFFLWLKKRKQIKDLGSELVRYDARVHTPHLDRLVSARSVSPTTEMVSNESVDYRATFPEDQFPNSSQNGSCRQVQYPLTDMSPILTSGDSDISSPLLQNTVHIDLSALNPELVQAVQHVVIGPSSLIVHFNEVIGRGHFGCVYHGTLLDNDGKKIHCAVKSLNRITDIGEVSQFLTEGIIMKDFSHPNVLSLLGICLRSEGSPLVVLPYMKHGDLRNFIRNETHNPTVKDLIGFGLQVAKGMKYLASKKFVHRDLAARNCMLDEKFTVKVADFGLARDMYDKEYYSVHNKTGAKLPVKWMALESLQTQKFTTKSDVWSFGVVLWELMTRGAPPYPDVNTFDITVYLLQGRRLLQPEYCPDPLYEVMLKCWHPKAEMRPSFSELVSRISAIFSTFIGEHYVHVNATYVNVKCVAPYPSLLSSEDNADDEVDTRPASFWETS
CD44, sequence (P16070 24-742): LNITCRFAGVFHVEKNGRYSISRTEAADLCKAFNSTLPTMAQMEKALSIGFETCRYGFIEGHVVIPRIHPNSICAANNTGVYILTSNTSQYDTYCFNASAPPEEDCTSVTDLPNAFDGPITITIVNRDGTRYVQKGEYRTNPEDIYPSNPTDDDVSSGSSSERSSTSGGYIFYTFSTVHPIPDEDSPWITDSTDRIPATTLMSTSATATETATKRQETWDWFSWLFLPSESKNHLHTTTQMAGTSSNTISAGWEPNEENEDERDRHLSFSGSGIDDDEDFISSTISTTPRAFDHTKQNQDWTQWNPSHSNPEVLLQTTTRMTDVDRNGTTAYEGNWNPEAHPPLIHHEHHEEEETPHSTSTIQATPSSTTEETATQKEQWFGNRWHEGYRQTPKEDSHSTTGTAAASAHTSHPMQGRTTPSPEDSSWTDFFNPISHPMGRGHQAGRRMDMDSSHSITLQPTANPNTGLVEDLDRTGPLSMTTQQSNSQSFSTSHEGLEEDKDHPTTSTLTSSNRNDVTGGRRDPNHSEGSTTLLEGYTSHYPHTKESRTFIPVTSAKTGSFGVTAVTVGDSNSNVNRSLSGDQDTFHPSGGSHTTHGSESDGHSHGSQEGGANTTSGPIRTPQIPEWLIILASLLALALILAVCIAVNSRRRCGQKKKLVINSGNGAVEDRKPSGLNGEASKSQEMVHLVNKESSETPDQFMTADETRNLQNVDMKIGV

B1: 076-048 antibody (antibody, V domains shown)
VH: QVQLVQSGAEVKKPGSSVKVSCRASGGTFSSYAISWVRQAPGQGLEWMGGIIPIFGTANYAQKFQGRVTITADKSTSTAYMELSSLRSEDTAVYYCAGDISRGSSWYGYYFDYWGQGTLVTVSR
VL: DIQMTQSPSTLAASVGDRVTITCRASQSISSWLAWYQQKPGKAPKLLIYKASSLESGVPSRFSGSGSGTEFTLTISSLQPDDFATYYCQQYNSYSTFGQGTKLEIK
notes: Clone of the scFv-CL-cp3 phage library
binding result [1]: binds

B2: 067-287 antibody (antibody, V domains shown)
VH: QVQLQQWGAGLLKPSETLSLTCTVHGGSFDDYYWTWIRQPPGGGLEWIGEMNSGRTYNYNPFLESRASIDVDTFKKQFSLALRSVTAADTAVYYCARGAYVNYYYIDVWGDGTTVTVSR
VL: QSALTQPASVSGSPGQTITISCTGTISDVGGYDFVSWYQHHPGKAPKLLIYDVNNRPSGVSHRFSGSKSGNTASLTISGLQAEDEATYYCSSYSNRHSLIVFGSGTQVVGLG
notes: as for B1
binding result [2]: binds

B3: 040-107 antibody (antibody, V domains shown)
VH: EVQLVESGGGVVQPGGSLRLSCAASGFNFDVYGMNWVRQVPGKGLEWVSLINGDGGLRYYADSVKGRFTVSRDNSRNSLYLQMNSLRSEDTALYYCVKGNFQQWGQGTLVTVSR
VL: SYVLTQPPSVSVAPGKTARITCGGNNIGSKSVHWYQQKPGQAPVLVIYYDSDRPSGIPERFSGSNSGNTATLTISRVEAGDEADYYCQVWDSSSDHVVFGGGTKLTVLG
notes: Clone of the scFv-CL-cp3 phage library; pp type (protein A fusion) used for immunoprecipitation
binding result [3]: binds

B4: 066-069 antibody (antibody, V domains shown)
VH: QVQLVQSEAEVKKPGESLKISCKGSGYSFTSYWIGWVRQMPGKGLEWMGIIYPGDSDTRYSPSFQGQVTISADKSISTAYLQWSSLKASDTAMYYCARTIGLGAFDIWGQGTTVTVSR
VL: SSELTQDPAVSVALGQTVRITCQGDSLRSYYASWYQQKPGQAPVLVIYGKNNRPSGIPDRFSGSSSGNTASLTITGAQAEDEADYYCNSRDSSGNHHYVFGTGTKVTVLG
notes: as for B1
binding result [4]: binds

B5: 041-118 antibody (antibody, V domains shown)
VH: EVQLVESGGGLVQPGGSLRLSCAASGFTFDDYAMHWVRQAPGKGLEWVSLISGDGGSTYYADSVKDRFTISRDNSKNSLYLQMNSLRAEDTAVYYCARGNYFDYWGQGTLVTVSR
VL: SYELTQPLSVSVALGQTARITCGGNNIGSKNVHWYQQKPGQAPVLVIYRDSNRPSGIPERFSGSNSGNTATLTISRAQAGDEADYYCQVWDSSVVFGGGTKLTVLG
notes: as for B3
binding result [5]: binds

B6: 035-234 antibody (antibody, V domains shown)
VH: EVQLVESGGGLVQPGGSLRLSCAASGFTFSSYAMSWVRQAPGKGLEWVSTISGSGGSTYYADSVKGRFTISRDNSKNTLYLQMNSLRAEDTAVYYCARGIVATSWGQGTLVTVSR
VL: SYELTQPPSVSVAPGQTARITCGGNKIGSKSVHWYQQKQGQAPVLVIYLDRDRPSGIPERFSGSNSGNTATLTITRVEAEDEADYYCHLWDSGSDQVFGGGTKLTVLG
notes: as for B3
binding result [3]: binds

B7: 064-003 antibody (antibody, V domains shown)
VH: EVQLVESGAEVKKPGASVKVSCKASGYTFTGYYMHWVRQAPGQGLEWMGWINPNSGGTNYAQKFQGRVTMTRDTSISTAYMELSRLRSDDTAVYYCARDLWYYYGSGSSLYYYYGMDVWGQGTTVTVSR
VL: QSVLTQPPSVSGAPGQRVTISCTGSSSNIGAGYDVHWYQQLPGTAPKLLIYGNSNRPSGVPDRFSGSKSGTSASLAITGLQAEDEADYYCQSYDSSLSGVVFGGGTKLTVLG
notes: as for B1
binding result [6]: binds

B8: 067-153 antibody (antibody, V domains shown)
VH: QVQLQESGGGLVQPGGSLRLSCTTSGFTFTSYAMSWVRQAPGKGLEWVSSISGSGGITYYADSVKGRFTISRDNSKNTLYLQMNSLRAEDTAVYYCAKDRVLVPASSSYFDYWGQGTLVTVSR
VL: SSELTQDPAVSVALGQTVRITCQGDSLRSYYASWYQQKPGQAPVLVIYGKNNRPSGIPDRFSGSSSGNTASLTITGAQAEDEADYYCNSRDSSGNHVVFGGGTKLTVLG
notes: as for B1
binding result [7]: binds

B9: 067-024 antibody (antibody, V domains shown)
VH: QVQLVQSGAEVKKPGASVKVSCKASGYTFTSYYMHWVRQAPGQGLEWMGIINPSGGSTSYAQKFQGRVTMTRDTSTSTVYMELSSLRSEDTAVYYCARAKRRGSAFDIWGQGTTVTVSR
VL: B8 VL
notes: as for B1
binding result [8]: binds

B10: 067-213 antibody (antibody, V domains shown)
VH: EVQLVESGGGLVQPGRSLRLSCAASGFTFDDYAMHWVRQAPGKGLEWVSGISWNSGSIGYADSVKGRFTISRDNAKNSLYLQMNSLRAEDTALYYCVRSGSYNYYYYGMDVWGQGTTVTVSR
VL: not shown
notes: as for B1
binding result [9]: binds
